Experimental findings from patent US20250026849A1 (ARCELLX, published 2025) are described below.

Sequences and labels used below:
T1: BCMA (Homo sapiens (Human), UniProt Q02223 1-54, limits assumed)
T1 sequence: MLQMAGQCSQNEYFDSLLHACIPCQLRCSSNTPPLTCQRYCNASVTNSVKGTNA

B1: D-domain SEQ ID NO: 124 (designed binder)
chain: MGSWNEFHHRLWAIFDRLGALGGSEAELAAFEKEIAAFESELQAYKGKGNPEVEVLRKMAAGIRGGLQAYRHN
B2: D-domain SEQ ID NO: 119 (designed binder)
chain: MGSWYEFGDRLSAIWERLAALGGSEAELAAFEKEIAAFESELQAYKGKGNPEVEYLRTHAAEIRTILQAYRHN
B3: D-domain SEQ ID NO: 209 (designed binder)
chain: MGSWEEFDNRLEAIFDRLEALGGSEAELAAFEKEIAAFESELQAYKGKGNPEVEELREFAATIRITLQAYRHN
B4: D-domain SEQ ID NO: 214 (designed binder)
chain: MGSWTEFWARLYAIEMRLFALGGSEAELAAFEKEIAAFESELQAYKGKGNPEVEHLRRVAALIREQLQAYRHN
B5: D-domain SEQ ID NO: 115 (designed binder)
chain: MGSWNEFSGRLTAIKDRLAALGGSEAELAAFEKEIAAFESELQAYKGKGNPEVEELRFRAAVIRLWLQAYRHN
B6: D-domain SEQ ID NO: 129 (designed binder)
chain: MGSWVEFGTRLSAIYNRLWALGGSEAELAAFEKEIAAFESELQAYKGKGNPEVEDLRFEAAIIRIMLQAYRHN
B7: D-domain SEQ ID NO: 130 (designed binder)
chain: MGSWVEFTHRLDAIYIRLWALGGSEAELAAFEKEIAAFESELQAYKGKGNPEVEELRHEAAVIREELQAYRHN
B8: D-domain SEQ ID NO: 127 (designed binder)
chain: MGSWFEFQYRLEAIFYRLLALGGSEAELAAFEKEIAAFESELQAYKGKGKPEVEELRVRAALIRHLLQAYRHN
B9: D-domain SEQ ID NO: 128 (designed binder)
chain: MGSWVEFHARLDAIYTRLGALGGSEAELAAFEKEIAAFESELQAYKGKGNPEVEYLRVLAAHIRISLQAYRHN
B10: D-domain SEQ ID NO: 118 (designed binder)
chain: MGSWYEFEDRLVAIWIRLDALGGSEAELAAFEKEIAAFESELQAYKGKGNPEVEELRYNAAFIRGALQAYRHN
B11: D-domain SEQ ID NO: 131 (designed binder)
chain: MGSWVEFHGRLAAIYVRLFALGGSEAELAAFEKEIAAFESELQAYKGKGNPEVESLRYHAAMIRRNLQAYRHN
B12: D-domain SEQ ID NO: 123 (designed binder)
chain: MGSWQEFYNRLEAIHMRLFALGGSEAELAAFEKEIAAFESELQAYKGKGNPEVEGLRSDAAPIRDVLQAYRHN
B13: D-domain SEQ ID NO: 125 (designed binder)
chain: MGSWYEFHYRLKAINDRLYALGGSEAELAAFEKEIAAFESELQAYKGKGNPEVEYLRYSAAMIRHKLQAYRHN
B14: D-domain SEQ ID NO: 126 (designed binder)
chain: MGSWTEFHQRLGAIHARLGALGGSEAELAAFEKEIAAFESELQAYKGKGNPEVEYLRFSAAFIRLKLQAYRHN
B15: D-domain SEQ ID NO: 122 (designed binder)
chain: MGSWLEFHYRLHAIQFRLYALGGSEAELAAFEKEIAAFESELQAYKGKGNPEVETLRHIAALIRNQLQAYRHN
B16: D-domain SEQ ID NO: 116 (designed binder)
chain: MGSWVEFDERLVAIWFRLHALGGSEAELAAFEKEIAAFESELQAYKGKGNPEVEALRARAAYIRIWLQAYRHN
B17: D-domain SEQ ID NO: 117 (designed binder)
chain: MGSWSEFGQRLSAIWERLLALGGSEAELAAFEKEIAAFESELQAYKGKGNPEVEALRADAAFIRIWLQAYRHN

The test addresses T1, BCMA. The experiment in a line: ELISA, format not described. Set-up: unit not given here.
For the molecule B1, the ELISA_avg amounted to 3.88.

B2: the ELISA_avg came out at 8.89. In the case of B3 it was 3.93; in that of B4, 12.5; in that of B5, 3.39.

Molecule B6 displayed an ELISA_avg of 15.4. B7 registered an ELISA_avg of 13.9.

B8 had an ELISA_avg of 17.3.

B9 registered an ELISA_avg of 3.8. The molecule B10 displayed an ELISA_avg of 4.93. Take B11: the ELISA_avg stood at 4.

With B12, the ELISA_avg was found to be 6.47.

Take B13: the ELISA_avg stood at 6.04. As for B14, the ELISA_avg is 8.87. Molecule B15 had an ELISA_avg of 12.7. Molecule B16 came in with an ELISA_avg of 8.96.

B17 gave an ELISA_avg of 14.
